In IntAct's records for PubMed 35512704:

B1: Speckle-type POZ protein (Homo sapiens), O43791 (parent)
chain: MSRVPSPPPPAEMSSGPVAESWCYTQIKVVKFSYMWTINNFSFCREEMGEVIKSSTFSSGANDKLKWCLRVNPKGLDEESKDYLSLYLLLVSCPKSEVRAKFKFSILNAKGEETKAMESQRAYRFVQGKDWGFKKFIRRDFLLDEANGLLPDDKLTLFCEVSVVQDSVNISGQNTMNMVKVPECRLADELGGLWENSRFTDCCLCVAGQEFQAHKAILAARSPVFSAMFEHEMEESKKNRVEINDVEPEVFKEMMCFIYTGKAPNLDKMADDLLAAADKYALERLKVMCEDALCSNLSVENAAEILILADLHSADQLKTQAVDFINYHASDVLETSGWKSMVVSHPHLVAEAYRSLASAQCPFLGPPRKRLKQS

Variants of: B1
Conditions: with gbra6_human GABRA6, Q16445

Variant | effect of a mutation on the interaction
F133V | with no effect

Variants of: B1
Conditions: with gata1_human GATA1, P15976
Sequence of gata1_human GATA1, P15976 (P15976 whole entry): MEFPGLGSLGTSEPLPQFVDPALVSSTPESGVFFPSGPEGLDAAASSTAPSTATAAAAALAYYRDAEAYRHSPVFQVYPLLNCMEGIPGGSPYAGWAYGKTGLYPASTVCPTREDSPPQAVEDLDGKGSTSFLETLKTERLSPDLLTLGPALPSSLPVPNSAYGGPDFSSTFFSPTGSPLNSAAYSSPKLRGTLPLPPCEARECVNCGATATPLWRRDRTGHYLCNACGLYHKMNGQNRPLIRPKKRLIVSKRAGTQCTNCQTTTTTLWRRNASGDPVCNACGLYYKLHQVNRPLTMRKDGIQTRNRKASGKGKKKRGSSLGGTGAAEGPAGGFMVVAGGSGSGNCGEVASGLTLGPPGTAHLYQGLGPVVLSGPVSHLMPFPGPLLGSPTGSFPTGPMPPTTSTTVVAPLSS

Variant | effect of a mutation on the interaction
F133V | with no effect

Variants of: B1
Conditions: with p66b_human GATAD2B

Variant | effect of a mutation on the interaction
F133V | with no effect

Variants of: B1
Conditions: with gna11_human GNA11, P29992

Variant | effect of a mutation on the interaction
F133V | with no effect

Variants of: B1
Conditions: with gna13_human GNA13, Q14344

Variant | effect of a mutation on the interaction
F133V | with no effect

Variants of: B1
Conditions: with gnaq_human GNAQ

Variant | effect of a mutation on the interaction
F133V | with no effect

Variants of: B1
Conditions: with grm1_human GRM1, Q13255

Variant | effect of a mutation on the interaction
F133V | with no effect

Variants of: B1
Conditions: with grm3_human GRM3, Q14832

Variant | effect of a mutation on the interaction
F133V | with no effect

Variants of: B1
Conditions: with gtpb4_human GTPBP4, Q9BZE4

Variant | effect of a mutation on the interaction
F133V | with no effect

Variants of: B1
Conditions: with h33_human H3-3A

Variant | effect of a mutation on the interaction
F133V | with no effect

Variants of: B1
Conditions: with hdac1_human HDAC1, Q13547
Sequence of hdac1_human HDAC1, Q13547 (Q13547 whole entry): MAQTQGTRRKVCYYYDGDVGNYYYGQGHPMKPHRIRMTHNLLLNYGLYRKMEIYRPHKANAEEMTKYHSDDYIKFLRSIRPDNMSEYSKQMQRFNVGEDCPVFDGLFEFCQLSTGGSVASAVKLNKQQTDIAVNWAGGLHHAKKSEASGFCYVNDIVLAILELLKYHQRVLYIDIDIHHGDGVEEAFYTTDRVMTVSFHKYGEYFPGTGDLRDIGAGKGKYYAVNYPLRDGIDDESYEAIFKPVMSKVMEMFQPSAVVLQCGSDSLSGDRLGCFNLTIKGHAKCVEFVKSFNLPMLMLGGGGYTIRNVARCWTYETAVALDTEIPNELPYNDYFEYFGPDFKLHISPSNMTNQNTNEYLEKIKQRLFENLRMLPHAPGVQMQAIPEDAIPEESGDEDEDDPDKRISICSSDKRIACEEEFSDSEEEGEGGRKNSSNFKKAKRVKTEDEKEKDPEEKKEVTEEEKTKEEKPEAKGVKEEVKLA

Variant | effect of a mutation on the interaction
F133V | with no effect

Variants of: B1
Conditions: with hdac3_human HDAC3, O15379
Sequence of hdac3_human HDAC3, O15379 (O15379 whole entry): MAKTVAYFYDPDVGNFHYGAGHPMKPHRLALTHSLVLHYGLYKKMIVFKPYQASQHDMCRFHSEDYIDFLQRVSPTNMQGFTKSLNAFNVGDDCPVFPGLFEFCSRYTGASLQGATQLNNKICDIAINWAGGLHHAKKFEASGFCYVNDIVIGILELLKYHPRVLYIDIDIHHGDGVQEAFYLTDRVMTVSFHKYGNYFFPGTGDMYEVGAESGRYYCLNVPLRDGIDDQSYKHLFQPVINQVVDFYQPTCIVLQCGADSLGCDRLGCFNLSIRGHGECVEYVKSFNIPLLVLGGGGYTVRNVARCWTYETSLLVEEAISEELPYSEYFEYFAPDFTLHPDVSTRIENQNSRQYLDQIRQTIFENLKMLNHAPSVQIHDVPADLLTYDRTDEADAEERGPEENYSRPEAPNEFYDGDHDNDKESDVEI

Variant | effect of a mutation on the interaction
F133V | with no effect

Variants of: B1
Conditions: with hgf_human HGF

Variant | effect of a mutation on the interaction
F133V | with no effect

Variants of: B1
Conditions: with h31_human H3C1, P68431

Variant | effect of a mutation on the interaction
F133V | with no effect

Variants of: B1
Conditions: with hlab_human HLA-B

Variant | effect of a mutation on the interaction
F133V | with no effect

Variants of: B1
Conditions: with hnf1a_human HNF1A

Variant | effect of a mutation on the interaction
F133V | with no effect

Variants of: B1
Conditions: with igf1r_human IGF1R

Variant | effect of a mutation on the interaction
F133V | with no effect

Variants of: B1
Conditions: with il7ra_human IL7R

Variant | effect of a mutation on the interaction
F133V | with no effect

Variants of: B1
Conditions: with int12_human INTS12, Q96CB8

Variant | effect of a mutation on the interaction
F133V | with no effect

Variants of: B1
Conditions: with ist1_human IST1, P53990

Variant | effect of a mutation on the interaction
F133V | with no effect

Variants of: B1
Conditions: with jak1_human JAK1, P23458

Variant | effect of a mutation on the interaction
F133V | with no effect

Variants of: B1
Conditions: with jak3_human JAK3, P52333

Variant | effect of a mutation on the interaction
F133V | with no effect

Variants of: B1
Conditions: with kat2a_human KAT2A

Variant | effect of a mutation on the interaction
F133V | with no effect

Variants of: B1
Conditions: with kdm5a_human KDM5A

Variant | effect of a mutation on the interaction
F133V | with no effect

Variants of: B1
Conditions: with kdm5c_human KDM5C

Variant | effect of a mutation on the interaction
F133V | with no effect

Variants of: B1
Conditions: with vgfr2_human KDR

Variant | effect of a mutation on the interaction
F133V | with no effect

Variants of: B1
Conditions: with lims1_human LIMS1, P48059

Variant | effect of a mutation on the interaction
F133V | with no effect

Variants of: B1
Conditions: with maga6_human MAGEA6, P43360

Variant | effect of a mutation on the interaction
F133V | with no effect

Variants of: B1
Conditions: with m3k1_human MAP3K1, Q13233

Variant | effect of a mutation on the interaction
F133V | with no effect

Variants of: B1
Conditions: with mk10_human MAPK10, P53779

Variant | effect of a mutation on the interaction
F133V | with no effect

Variants of: B1
Conditions: with mk14_human MAPK14, Q16539
Sequence of mk14_human MAPK14, Q16539 (Q16539 whole entry): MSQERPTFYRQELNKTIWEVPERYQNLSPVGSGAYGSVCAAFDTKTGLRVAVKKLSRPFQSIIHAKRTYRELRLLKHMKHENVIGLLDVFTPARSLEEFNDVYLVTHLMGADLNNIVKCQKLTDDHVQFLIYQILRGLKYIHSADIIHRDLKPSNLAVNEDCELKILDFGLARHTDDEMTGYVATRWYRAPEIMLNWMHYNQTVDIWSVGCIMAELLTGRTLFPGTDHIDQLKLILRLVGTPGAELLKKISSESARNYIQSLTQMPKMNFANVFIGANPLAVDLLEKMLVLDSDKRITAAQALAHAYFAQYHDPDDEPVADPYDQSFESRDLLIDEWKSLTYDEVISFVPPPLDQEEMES

Variant | effect of a mutation on the interaction
F133V | with no effect

Variants of: B1
Conditions: with mk03_human MAPK3, P27361
Sequence of mk03_human MAPK3, P27361 (P27361 whole entry): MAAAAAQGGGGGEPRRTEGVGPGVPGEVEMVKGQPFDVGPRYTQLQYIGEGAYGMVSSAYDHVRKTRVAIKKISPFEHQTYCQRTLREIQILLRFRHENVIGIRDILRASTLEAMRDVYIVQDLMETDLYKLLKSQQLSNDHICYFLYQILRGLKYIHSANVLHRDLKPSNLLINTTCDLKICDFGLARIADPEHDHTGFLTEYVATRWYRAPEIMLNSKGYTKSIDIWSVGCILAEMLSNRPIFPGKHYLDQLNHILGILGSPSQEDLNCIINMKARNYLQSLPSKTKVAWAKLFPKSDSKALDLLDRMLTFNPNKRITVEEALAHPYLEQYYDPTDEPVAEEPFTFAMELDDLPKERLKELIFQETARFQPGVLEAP

Variant | effect of a mutation on the interaction
F133V | with no effect

Variants of: B1
Conditions: with mk04_human MAPK4, P31152
Sequence of mk04_human MAPK4, P31152 (P31152 whole entry): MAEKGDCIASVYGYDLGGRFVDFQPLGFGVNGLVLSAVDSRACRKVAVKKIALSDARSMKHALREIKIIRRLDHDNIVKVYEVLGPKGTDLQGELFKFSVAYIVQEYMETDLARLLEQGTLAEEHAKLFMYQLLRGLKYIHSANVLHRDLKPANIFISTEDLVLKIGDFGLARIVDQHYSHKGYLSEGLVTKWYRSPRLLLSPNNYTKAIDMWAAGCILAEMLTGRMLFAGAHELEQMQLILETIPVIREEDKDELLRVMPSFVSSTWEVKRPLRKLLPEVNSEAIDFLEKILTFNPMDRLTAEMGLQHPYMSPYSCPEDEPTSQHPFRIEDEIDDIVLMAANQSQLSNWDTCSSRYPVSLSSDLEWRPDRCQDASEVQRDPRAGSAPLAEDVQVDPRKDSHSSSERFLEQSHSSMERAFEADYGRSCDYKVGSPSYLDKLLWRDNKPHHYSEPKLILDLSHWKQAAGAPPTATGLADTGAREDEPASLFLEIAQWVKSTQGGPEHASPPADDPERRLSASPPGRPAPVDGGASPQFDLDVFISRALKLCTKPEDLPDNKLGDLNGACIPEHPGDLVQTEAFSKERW

Variant | effect of a mutation on the interaction
F133V | with no effect

Variants of: B1
Conditions: with mk06_human MAPK6, Q16659

Variant | effect of a mutation on the interaction
F133V | with no effect

Variants of: B1
Conditions: with sin1_human MAPKAP1, Q9BPZ7

Variant | effect of a mutation on the interaction
F133V | with no effect

Variants of: B1
Conditions: with mcl1_human MCL1, Q07820

Variant | effect of a mutation on the interaction
F133V | with no effect

Variants of: B1
Conditions: with mdm2_human MDM2, Q00987

Variant | effect of a mutation on the interaction
F133V | with no effect

Variants of: B1
Conditions: with mitf_human MITF

Variant | effect of a mutation on the interaction
F133V | with no effect

Variants of: B1
Conditions: with mlh1_human MLH1, P40692
Sequence of mlh1_human MLH1, P40692 (P40692 whole entry): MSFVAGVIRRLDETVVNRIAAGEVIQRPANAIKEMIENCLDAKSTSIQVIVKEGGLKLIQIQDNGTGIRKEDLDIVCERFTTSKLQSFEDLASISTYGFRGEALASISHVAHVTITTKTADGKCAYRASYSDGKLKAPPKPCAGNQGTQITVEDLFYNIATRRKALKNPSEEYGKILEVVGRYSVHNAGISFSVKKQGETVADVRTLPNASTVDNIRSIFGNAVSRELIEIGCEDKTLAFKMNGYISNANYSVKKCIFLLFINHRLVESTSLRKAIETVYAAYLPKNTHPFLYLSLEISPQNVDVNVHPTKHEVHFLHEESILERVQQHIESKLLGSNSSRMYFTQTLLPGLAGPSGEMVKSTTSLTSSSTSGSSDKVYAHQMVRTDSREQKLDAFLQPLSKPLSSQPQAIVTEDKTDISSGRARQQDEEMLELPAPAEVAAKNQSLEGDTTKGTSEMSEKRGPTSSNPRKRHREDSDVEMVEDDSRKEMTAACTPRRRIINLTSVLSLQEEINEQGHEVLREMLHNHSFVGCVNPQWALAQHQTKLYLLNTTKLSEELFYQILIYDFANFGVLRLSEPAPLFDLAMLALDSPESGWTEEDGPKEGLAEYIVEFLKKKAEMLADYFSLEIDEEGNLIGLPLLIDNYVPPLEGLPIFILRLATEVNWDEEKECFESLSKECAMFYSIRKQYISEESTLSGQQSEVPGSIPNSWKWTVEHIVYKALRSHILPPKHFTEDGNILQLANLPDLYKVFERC

Variant | effect of a mutation on the interaction
F133V | with no effect

Variants of: B1
Conditions: with mtor_human MTOR

Variant | effect of a mutation on the interaction
F133V | with no effect

Variants of: B1
Conditions: with myb_human MYB

Variant | effect of a mutation on the interaction
F133V | with no effect

Variants of: B1
Conditions: with mybb_human MYBL2, P10244

Variant | effect of a mutation on the interaction
F133V | with no effect

Variants of: B1
Conditions: with myc_human MYC

Variant | effect of a mutation on the interaction
F133V | with no effect

Variants of: B1
Conditions: with mycn_human MYCN

Variant | effect of a mutation on the interaction
F133V | with no effect

Variants of: B1
Conditions: with ncoa3_human NCOA3, Q9Y6Q9
Sequence of ncoa3_human NCOA3, Q9Y6Q9 (Q9Y6Q9 whole entry, looked up): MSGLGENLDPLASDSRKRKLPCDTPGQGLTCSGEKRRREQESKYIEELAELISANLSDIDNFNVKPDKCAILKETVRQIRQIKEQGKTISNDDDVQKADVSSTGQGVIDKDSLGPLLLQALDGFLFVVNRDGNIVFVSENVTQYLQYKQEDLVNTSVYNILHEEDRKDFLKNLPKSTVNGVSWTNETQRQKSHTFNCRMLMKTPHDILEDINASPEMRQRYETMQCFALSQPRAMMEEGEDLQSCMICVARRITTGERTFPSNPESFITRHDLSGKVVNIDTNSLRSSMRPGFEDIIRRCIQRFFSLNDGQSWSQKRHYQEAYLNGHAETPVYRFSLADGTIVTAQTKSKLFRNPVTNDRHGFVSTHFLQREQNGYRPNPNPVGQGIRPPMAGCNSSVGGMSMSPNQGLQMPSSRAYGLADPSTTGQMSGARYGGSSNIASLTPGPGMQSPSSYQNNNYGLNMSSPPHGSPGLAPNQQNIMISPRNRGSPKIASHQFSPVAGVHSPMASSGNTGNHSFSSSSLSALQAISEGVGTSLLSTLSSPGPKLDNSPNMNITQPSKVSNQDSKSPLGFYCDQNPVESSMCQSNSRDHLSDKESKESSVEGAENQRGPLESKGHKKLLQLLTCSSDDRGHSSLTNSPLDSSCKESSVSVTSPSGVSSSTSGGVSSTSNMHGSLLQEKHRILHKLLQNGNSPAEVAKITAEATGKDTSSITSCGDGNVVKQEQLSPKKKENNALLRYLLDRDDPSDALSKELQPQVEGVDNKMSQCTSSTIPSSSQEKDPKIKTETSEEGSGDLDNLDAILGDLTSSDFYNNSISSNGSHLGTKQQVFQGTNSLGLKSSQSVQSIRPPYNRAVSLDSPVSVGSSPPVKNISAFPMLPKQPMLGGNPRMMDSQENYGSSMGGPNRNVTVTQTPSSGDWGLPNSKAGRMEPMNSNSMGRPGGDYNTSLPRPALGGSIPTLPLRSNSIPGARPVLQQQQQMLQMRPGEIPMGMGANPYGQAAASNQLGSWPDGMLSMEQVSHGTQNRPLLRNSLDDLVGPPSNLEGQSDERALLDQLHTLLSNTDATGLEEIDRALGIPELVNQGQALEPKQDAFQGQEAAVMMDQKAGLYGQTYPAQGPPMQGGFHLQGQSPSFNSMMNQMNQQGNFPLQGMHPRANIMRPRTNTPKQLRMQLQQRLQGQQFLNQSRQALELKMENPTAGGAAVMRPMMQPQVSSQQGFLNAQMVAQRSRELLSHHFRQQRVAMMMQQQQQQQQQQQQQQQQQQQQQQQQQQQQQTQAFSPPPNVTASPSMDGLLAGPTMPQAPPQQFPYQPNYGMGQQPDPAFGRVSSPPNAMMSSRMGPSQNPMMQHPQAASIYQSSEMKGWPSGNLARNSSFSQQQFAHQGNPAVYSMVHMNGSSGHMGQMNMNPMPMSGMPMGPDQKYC

Variant | effect of a mutation on the interaction
F133V | with no effect

Variants of: B1
Conditions: with ikba_human NFKBIA

Variant | effect of a mutation on the interaction
F133V | with no effect

Variants of: B1
Conditions: with nox1_human NOX1, Q9Y5S8

Variant | effect of a mutation on the interaction
F133V | with no effect

Variants of: B1
Conditions: with npm_human NPM1, P06748

Variant | effect of a mutation on the interaction
F133V | with no effect

Variants of: B1
Conditions: with nsd3_human NSD3, Q9BZ95

Variant | effect of a mutation on the interaction
F133V | with no effect

Variants of: B1
Conditions: with ntrk2_human NTRK2, Q16620

Variant | effect of a mutation on the interaction
F133V | with no effect

Variants of: B1
Conditions: with ntrk3_human NTRK3, Q16288

Variant | effect of a mutation on the interaction
F133V | with no effect

Variants of: B1
Conditions: with pak3_human PAK3, O75914

Variant | effect of a mutation on the interaction
F133V | with no effect

Variants of: B1
Conditions: with prkn_human PRKN

Variant | effect of a mutation on the interaction
F133V | with no effect

Variants of: B1
Conditions: with pb1_human PBRM1, Q86U86

Variant | effect of a mutation on the interaction
F133V | with no effect

Variants of: B1
Conditions: with pcbp1_human PCBP1, Q15365

Variant | effect of a mutation on the interaction
F133V | with no effect

Variants of: B1
Conditions: with pdcd1_human PDCD1, Q15116

Variant | effect of a mutation on the interaction
F133V | with no effect

Variants of: B1
Conditions: with pgfrb_human PDGFRB

Variant | effect of a mutation on the interaction
F133V | with no effect

Variants of: B1
Conditions: with pdk1_human PDK1, Q15118

Variant | effect of a mutation on the interaction
F133V | with no effect

Variants of: B1
Conditions: with pk3ca_human PIK3CA

Variant | effect of a mutation on the interaction
F133V | with no effect

Variants of: B1
Conditions: with pk3cb_human PIK3CB

Variant | effect of a mutation on the interaction
F133V | with no effect
